Broadly, the IC50 is the midpoint of a concentration-inhibition curve.

Common to all, as to assay: cell-based or functional assay
In assay [1] the target is HIV-1 92BR020 envelope glycoprotein (Env) on pseudovirus (HIV-1).
For assay [2], the target named is HIV-1 92RW020 envelope glycoprotein (Env) on pseudovirus (HIV-1).
Assay [3] deals with HIV-1 Env of isolate 6535.3 (HIV-1).
Assay [4] deals with HIV-1 Env of isolate 92BR020 (HIV-1).
For assay [5], the target named is HIV-1 Env of isolate 92RW008 (clade A), on pseudovirus (HIV-1).
For assay [6], the target named is HIV-1 Env of isolate 92RW009 (clade A), on pseudovirus (HIV-1).
In assay [7] the target is HIV-1 Env of isolate 92TH021 (pseudovirus) (HIV-1).
The target in assay [8] is HIV-1 Env of isolate 92UG001 (subtype D), on pseudovirus (HIV-1).
In assay [9] the target is HIV-1 Env of isolate 92UG005 (subtype D), on pseudovirus (HIV-1).
The target in assay [10] is HIV-1 Env of isolate 92UG024 (subtype D), on pseudovirus (HIV-1).
For assay [11], the target named is HIV-1 Env of isolate 92UG031 (pseudovirus) (HIV-1).
In assay [12] the target is HIV-1 Env of isolate 92UG037 (pseudovirus) (HIV-1).
Assay [13] concerns the target HIV-1 Env of isolate 92UG046 (subtype D), on pseudovirus (HIV-1).
In assay [14] the target is HIV-1 Env of isolate 92UG114 (subtype D), on pseudovirus (HIV-1).
The target of assay [15] is HIV-1 Env of isolate 92WR020 (pseudovirus) (HIV-1).
Assay [16] concerns the target HIV-1 Env of isolate 92WR021 (pseudovirus) (HIV-1).
Assay [17] concerns the target HIV-1 Env of isolate 92WR024 (pseudovirus) (HIV-1).
Assay [18] concerns the target HIV-1 Env of isolate 92WR026 (pseudovirus) (HIV-1).
The target of assay [19] is HIV-1 Env of isolate 93TH305 (HIV-1).
Assay [20] addresses HIV-1 Env of isolate 93UG077 (pseudovirus) (HIV-1).
Assay [21] deals with HIV-1 Env of isolate 93WR029 (pseudovirus) (HIV-1).
Assay [22] concerns the target HIV-1 Env of isolate 94 KE 105 (pseudovirus) (HIV-1).
Assay [23] has as its target HIV-1 Env of isolate 94UG103 (pseudovirus) (HIV-1).
Assay [24] addresses HIV-1 Env of isolate 98CN006 (subtype CRF08 BC), on pseudovirus (HIV-1).
For assay [25], the target named is HIV-1 Env of isolate 98CN009 (subtype CRF07_BC), on pseudovirus (HIV-1).
Assay [26] has as its target HIV-1 Env of isolate APV_13 (HIV-1).
For assay [27], the target named is HIV-1 Env of isolate APV_17 (HIV-1).
For assay [28], the target named is HIV-1 Env of isolate APV_6 (HIV-1).
For assay [29], the target named is HIV-1 Env of isolate CAAN.A2 (HIV-1).
Assay [30] addresses HIV-1 Env of isolate CMU02 (pseudovirus) (HIV-1).
Assay [31] concerns the target HIV-1 Env of isolate JRFL (HIV-1).
Assay [32] has as its target HIV-1 Env of isolate MG RM-A-005 (pseudovirus) (HIV-1).
Assay [33] concerns the target HIV-1 Env of isolate MG RM-A-006 (pseudovirus) (HIV-1).
For assay [34], the target named is HIV-1 Env of isolate MG RM-A-007 (pseudovirus) (HIV-1).
Assay [35] deals with HIV-1 Env of isolate MG RM-A-008 (pseudovirus) (HIV-1).
In assay [36] the target is HIV-1 Env of isolate MG RM-A-009 (pseudovirus) (HIV-1).
The target in assay [37] is HIV-1 Env of isolate MG RM-A-010 (pseudovirus) (HIV-1).
Assay [38] addresses HIV-1 Env of isolate MG RM-A-011 (pseudovirus) (HIV-1).
Assay [39] has as its target HIV-1 Env of isolate MG RM-A-012 (pseudovirus) (HIV-1).
In assay [40] the target is HIV-1 Env of isolate MG RM-A-013 (pseudovirus) (HIV-1).
Assay [41] concerns the target HIV-1 Env of isolate MG RM-A-014 (pseudovirus) (HIV-1).
For assay [42], the target named is HIV-1 Env of isolate MGRM-AE-001 (pseudovirus) (HIV-1).
Assay [43] has as its target HIV-1 Env of isolate MGRM-AE-002 (pseudovirus) (HIV-1).
The target of assay [44] is HIV-1 Env of isolate MGRM-AE-003 (pseudovirus) (HIV-1).
The target of assay [45] is HIV-1 Env of isolate MGRM-AE-004 (pseudovirus) (HIV-1).
Assay [46] deals with HIV-1 Env of isolate MGRM-AE-005 (pseudovirus) (HIV-1).
Assay [47] concerns the target HIV-1 Env of isolate MGRM-AE-006 (pseudovirus) (HIV-1).
Assay [48] deals with HIV-1 Env of isolate MGRM-Chronic-B-001 (HIV-1).
The target in assay [49] is HIV-1 Env of isolate MGRM-Chronic-B-002 (HIV-1).
Assay [50] concerns the target HIV-1 Env of isolate MGRM-Chronic-B-003 (HIV-1).
Assay [51] addresses HIV-1 Env of isolate MGRM-Chronic-B-004 (HIV-1).
Assay [52] addresses HIV-1 Env of isolate MGRM-Chronic-B-008 (HIV-1).
Assay [53] deals with HIV-1 Env of isolate MGRM-D-001 (subtype D), on pseudovirus (HIV-1).
Assay [54] has as its target HIV-1 Env of isolate MGRM-D-002 (subtype D), on pseudovirus (HIV-1).
The target of assay [55] is HIV-1 Env of isolate MGRM-D-003 (subtype D), on pseudovirus (HIV-1).
For assay [56], the target named is HIV-1 Env of isolate MGRM-D-004 (subtype D), on pseudovirus (HIV-1).
Assay [57] deals with HIV-1 Env of isolate MGRM-D-005 (subtype D), on pseudovirus (HIV-1).
In assay [58] the target is HIV-1 Env of isolate MGRM-D-008 (subtype D), on pseudovirus (HIV-1).
Assay [59] concerns the target HIV-1 Env of isolate VLGCA1 (pseudovirus) (HIV-1).
For assay [60], the target named is HIV-1 92TH021 envelope glycoprotein (Env) on pseudovirus (HIV-1).
For assay [61], the target named is HIV-1 92UG005 envelope glycoprotein (Env) on pseudovirus (HIV-1).
Assay [62] addresses HIV-1 92UG024 envelope glycoprotein (Env) on pseudovirus (HIV-1).
In assay [63] the target is HIV-1 CMU02 envelope glycoprotein (Env) on pseudovirus (HIV-1).
In assay [64] the target is aMLV envelope protein on pseudovirus (negative control virus).
Assay [65] addresses HIV-1 MGRM-AG-005 envelope glycoprotein (Env) on pseudovirus (HIV-1).
In assay [66] the target is HIV-1 MGRM-D-001 envelope glycoprotein (Env) on pseudovirus (HIV-1).
Assay [67] deals with HIV-1 MGRM-D-018 envelope glycoprotein (Env) on pseudovirus (HIV-1).

Sequence of 4995_E20 (PGT-142) (antibody) (VH): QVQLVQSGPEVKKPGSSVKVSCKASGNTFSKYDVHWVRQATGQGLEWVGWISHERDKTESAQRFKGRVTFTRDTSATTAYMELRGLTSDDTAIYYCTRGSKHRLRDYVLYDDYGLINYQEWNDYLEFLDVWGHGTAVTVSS
Sequence of 4995_E20 (PGT-142) (antibody) (VL): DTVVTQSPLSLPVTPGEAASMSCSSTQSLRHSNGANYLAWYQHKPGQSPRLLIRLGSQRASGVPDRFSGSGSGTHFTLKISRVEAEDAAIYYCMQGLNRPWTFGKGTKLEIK

Take 4995_E20 (PGT-142) (antibody): the IC50 (ug/ml), neutralizing activity in assay [1] and in [2] was above 10 µg/mL each time. In addition, the IC50 is above 50 µg/mL in assay [3]; 15.1 µg/mL in assay [4]; 5.86 µg/mL in assay [19]; above 50 µg/mL in assay [26]; 0.628 µg/mL in assay [27]; 4.72 µg/mL in assay [28]. In addition, the IC50 in assay [29] was above 50 µg/mL; in assay [31] it was above 50 µg/mL; in assay [48] it was above 50 µg/mL; in assay [49] it was above 50 µg/mL; in assay [50] it was 0.484 µg/mL; in assay [51], 0.172 µg/mL. In assay [52], this substance showed an IC50 above 50 µg/mL. Besides, the IC50, single-round pseudovirus neutralization in [5] is 0.447 µg/mL; in assay [6], 0.006 µg/mL. For the same substance, the IC50 (µg/mL), pseudovirus neutralization is 0.002 µg/mL in assay [7]; 0.05 µg/mL in assay [11]; 0.557 µg/mL in assay [12]; 31.5 µg/mL in [15]; above 50 µg/mL in [16]; 0.069 µg/mL in [17]. The IC50 (µg/mL), pseudovirus neutralization in [18] was 1.78 µg/mL; in assay [20] it was above 50 µg/mL; in [21], 0.014 µg/mL; in assay [22] it was 0.19 µg/mL; in [23], above 50 µg/mL; in assay [30], above 50 µg/mL. Besides, the IC50 (µg/mL), pseudovirus neutralization was 9.7 µg/mL in assay [32]; above 50 µg/mL in [33]; above 50 µg/mL in assay [34]; above 50 µg/mL in assay [35]; 0.058 µg/mL in [36]; 0.015 µg/mL in assay [37]. Besides, the IC50 (µg/mL), pseudovirus neutralization in assay [38] was above 50 µg/mL; in assay [39], above 50 µg/mL; in assay [40], 3.77 µg/mL; in assay [41] it was 0.367 µg/mL; in [42], above 50 µg/mL; in [43], above 50 µg/mL. The IC50 (µg/mL), pseudovirus neutralization is above 50 µg/mL in assay [44]; 0.001 µg/mL in assay [45]; above 50 µg/mL in [46]; above 50 µg/mL in [47]; 2.75 µg/mL in assay [59]. Moreover, the IC50, pseudovirus neutralization in assay [8], in [9], in assay [10], in assay [13], in assay [14] and in [24] was above 50 µg/mL in each case. Further, the IC50, pseudovirus neutralization was 4 µg/mL in [25]; above 50 µg/mL in [53]; above 50 µg/mL in assay [54]; above 50 µg/mL in assay [55]; above 50 µg/mL in [56]; 1.15 µg/mL in [57]. Also, in assay [58], the IC50, pseudovirus neutralization turned out to be 0.174 µg/mL.
Turning to PGT-121 monoclonal antibody, the IC50, pseudovirus neutralization in [60], in assay [61], in assay [62], in assay [63] and in [64] was above 10 µg/mL in each case.
Regarding PGT-122 monoclonal antibody, the IC50, pseudovirus neutralization in assay [60] is above 10 µg/mL; in assay [61], above 10 µg/mL; in assay [62], above 10 µg/mL; in [63], above 10 µg/mL; in assay [65], above 10 µg/mL; in [66] it was 0.867 µg/mL. In addition, the IC50, pseudovirus neutralization was 0.0115 µg/mL in assay [67] and above 10 µg/mL in assay [64].

Values taken from US20200024330A1.
